System: MS2 coat protein
Experiment: apparent KD of MS2 coat protein; designed switch direction (-1 OFF switch, 1 ON switch): -1; higher = weaker reporter binding
Outline: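 The reported apparent KD is a per-design median over clusters, from curve fits of normalised cluster fluorescence. Protein titrations used SNAP-549-labelled MS2 coat protein, doubled from 0.7 or 1.5 nM to 3 µM, in Tris-HCl pH 7.5 buffer with KCl, MgCl2, BSA, DTT, tRNA and Tween-20, with no input, 200 uM small-molecule ligand, or an oligonucleotide input. The RNA switches were transcribed on Illumina chips by stalled E. coli RNA polymerase.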

[1] = Eterna round: R95, input ligand: FMN 200 uM
[2] = Eterna round: R95, input ligand: microRNA oligo, concentration not stated
[3] = Eterna round: R95, input ligand: none
[4] = input ligand: microRNA oligo, concentration not stated

Sequence	apparent KD of MS2 coat protein (input ligand: FMN 200 uM) [nM]	apparent KD of MS2 coat protein (input ligand: none) [nM]	also measured
AAUACAAGCGAGAUCCUAAACAUGAGGAUCACCCAUGUGCUCGUCUUAUAAAGUACUAUCACGAAAGUGAUAGUACA [Sensor 3, v1 - 67] (puzzle: Sensor v3, turn-off variant 1)			apparent KD of MS2 coat protein [1]: 16.7 nM; apparent KD of MS2 coat protein [2]: 157 nM; apparent KD of MS2 coat protein [3]: 16.5 nM
AAUACAAGCUAUUGAUCCCACAUGAGGAUCACCCAUGUAGCUGGCCGUGAGACCAGCUUUACGAUAGCUCGUCUUAU [Sensor-V1 #50] (Eterna round: R97, puzzle: Sensor, turn-off variant 1)	261	263	
AAUACAAGCUAUUGAUCCCACAUGAGGAUCACCCAUGUAGGAGGCCGUGAGACCUCCUUUACGAUAGCUCGUCUUAU [Sensor-V1 #52] (Eterna round: R97, puzzle: Sensor, turn-off variant 1)	211	208	
AAUACAAGCUAUUGAUCCCACAUGAGGAUCACCCAUGUAUAUGGCGGUGACACCUCCAUGACGAUAGCUCGUCUUAU [Sensor-V1 #58] (Eterna round: R97, puzzle: Sensor, turn-off variant 1)	567	1360	
AAUACAAGCUAUUGAUCCCACAUGAGGAUCACCCAUGUUCCUGGCCGUGAGACAAGGUUGACAAUAGCUCGUCUUAU [Sensor-V1 #45] (Eterna round: R97, puzzle: Sensor, turn-off variant 1)	285	299	
AAUAGUUGAGUAGGAUAUGCAUCGACCGGCCGAGCAGAAGGACUCGUGAACUUGAGGAUCACCCAAGUGUCCUCGUUUGCUUGA [Mutated MS2 EX1.16] (Eterna round: R96, puzzle: Exclusion NG 1)	139	134	apparent KD of MS2 coat protein [4]: 125 nM
AAUAUCACAGGAUAUCCGGAUUUGUACAUGAGGAUCACCCAUGUGGUGACGUAGAACUCCGGAGAAGGGUGUCCAG [Eternabot (L2) Solution 89] (Eterna round: R97, puzzle: Exclusion 5)	29	161	
AAUCCACAUGAGGAUCACCCAUGUGAGGAUAUGAUACUAUGUACUUCGGUACAUAGUAUCAGAAGGCACAGGUC [Ex1-3: 58] (puzzle: Exclusion 1)			apparent KD of MS2 coat protein [2]: 25 nM
AAUGAGGGAGGAUAUACAUUCGGCUGUCAACAGCCCUUGGGACAUGAGGAUCACCCAUGUAGAAGGCCCGAUUA [EX2 B.20] (Eterna round: R97, puzzle: Exclusion 2)	365	38.7	
AAUGGGUGUGUGAGGAUAUACGAUGGCAGUUGCCAGUAGAAGGUACAUGAGGAUCACCCAUGUGUCCAAAAGUG [Aquin] (puzzle: Brourd's mod of Exclusion 4)			apparent KD of MS2 coat protein [2]: 11.9 nM
AAUGUCUGAGGAUAUCGUUUUUUGUACAUGAGGAUCACCCAUGUUUUAUUUUGUAUAUUACGAGAAGGCAGUGGAA [JR_E5_Sub088] (puzzle: Exclusion 5)			apparent KD of MS2 coat protein [2]: 22.7 nM
AAUGUGUGAGGAUAUUAGUUGUACGUCAAUAGACGUAUAAGUGAGAAGGCACAUGAGGAUCACCCAUGUUCCUG [Omei Ex4 Mod of Mat's R95 mod of Omei v6] (Eterna round: R97, puzzle: Exclusion 4)	109	24.9	
AAUUAGCAAGCAAGAUCCCACAUGAGGAUCACCCAUGUGCUCGUCUUAUAAGGUACUGUGACGAGAGUCACGGUACC [Mat - Sensor, turn-off var - Eli Mod - D48] (Eterna round: R97, puzzle: Sensor, turn-off variant 1)	51.5	50.5	
AAUUAGCAAGCGAGAUCUCACAUGAGGAUCACCCAUGUGCUCGUCUUAUAAGGUACUGUGACGAUAGUCACGGUACC [Mat - Sensor, turn-off var - Eli Mod - D39] (Eterna round: R97, puzzle: Sensor, turn-off variant 1)	13.2	14.8	
AAUUAGUAUGUGAGGAUAUUGACGGAAUGACUUGUUAAGAAGGCACAUGAGGAUCACCCAUGUGGGAAGUCACG [JR_BMEx4_Sub012] (Eterna round: R97, puzzle: Brourd's mod of Exclusion 4)	57.1	18.1	
AAUUAGUAUGUGAGGAUAUUGACGUAAUGACUGGUUAAGAAGGCACAUGAGGAUCACCCAUGUGGGAAGUCACG [JR_BMEx4_Sub011] (Eterna round: R97, puzzle: Brourd's mod of Exclusion 4)	56.8	15.2	

Sequence	apparent KD of MS2 coat protein (input ligand: FMN 200 uM) [nM]	apparent KD of MS2 coat protein (input ligand: none) [nM]	also measured
AAUUAUUAUUGAGGAUAUCGUAUUGAAAUAAUAUGAGAAGGCGGGAUAAACAUGAGGAUCACCCAUGUGAGCCUGAUGCUUGUG [Ex NG1 #39] (Eterna round: R96, puzzle: Exclusion NG 1)			apparent KD of MS2 coat protein [4]: 13.3 nM
AAUUCACAUGAGGAUCACCCAUGUCAGGAUAUGGUUUCACGUGUUUCUUUGCUUGAGGCCAGAAGGGACAGCUA (puzzle: Exclusion 1)			apparent KD of MS2 coat protein [2]: 67.2 nM
AAUUCACAUGAGGAUCACCCAUGUCAGGAUAUGGUUUCACUUUUUUCUUUUCUUGAUUCCAGAAGGGACAGCUA (puzzle: Exclusion 1)			apparent KD of MS2 coat protein [2]: 62.6 nM
AAUUCGCAAGCGAGAUCCCACAUGAGGAUCACCCAUGUGCUCGUCUUAUAAGGUACUGUGACGAAAGUCACGGUACC [Mat - Sensor, turn-off var - Eli Mod - D85] (Eterna round: R97, puzzle: Sensor, turn-off variant 1)	16.2	17.1	
AAUUCUAGGGUCAGACGCACAAGCUUUUUGUUCGUUUUAACAUGAGGAUCACCCAUGUCUAGUGGAUCUGAUCGGGC [JL ViennaUCT Isreen mod 9] (puzzle: Sensor v3, turn-off variant 2)			apparent KD of MS2 coat protein [1]: 28.6 nM; apparent KD of MS2 coat protein [2]: 71.4 nM; apparent KD of MS2 coat protein [3]: 31 nM
AAUUUACAUGAGGAUCACCCAUGUGAGGAUAUAUACAAAGAAGUGUUAGUAAGAAUGUAUAGAAGGCGCGUGAU [JR_Exc1_Sub040] (Eterna round: R97, puzzle: Exclusion 1)	71.4	58.6	
ACAACAAGCUUUUUGAACGUAGAACAUGAAGCUCUAGUCACAUGAGGAUCACCCAUGUCAGCCAGUUAGAUAGGUGA [JR_SV3TOV2_Sub065] (puzzle: Sensor v3, turn-off variant 2)			apparent KD of MS2 coat protein [1]: 64.5 nM; apparent KD of MS2 coat protein [2]: 49 nM; apparent KD of MS2 coat protein [3]: 51.2 nM
ACAACUGUAGGAUAUACUUUCUGGGUAAGCCAUUAUACUGGACAUGAGGAUCACCCAUGUAGAAGGACAGAAAG [Eternabot (Original) Solution 36] (Eterna round: R97, puzzle: Exclusion 2)	29.6	35.1	
ACAAGCAUUUAUCUUUUCAAAUAUUAUCGUCUUAUAAUUACAUGAGGAUCACCCAUGUAUAGAGGGUGAGAGAUACU [JR_Sensorv2_tov2_Sub552] (Eterna round: R96, puzzle: Sensor v2, turn-off variant 2)	61.1	58.1	apparent KD of MS2 coat protein [4]: 121 nM
ACAAGCUCUGUGGGUGGUGACAUGAGGAUCACCCAUGUUUUGCUCGUCUUGUGCCGGCCGGCCCGCGGCCGGCCGGC [-40.6, -69.5, A 12%] (Eterna round: R97, puzzle: Sensor, turn-off variant 1)	718	885	
ACAAGCUUAAUCUGUAUGAACAUGAGGAUCACCCAUGUAAAAGGGAAUACUUUUGGGUUUUUUAUAGCUCGUCUUAU [JR_STOV1_Sub019] (Eterna round: R97, puzzle: Sensor, turn-off variant 1)	52	49.5	
ACAAGCUUGUAAUGAUUGAACAUGAGGAUCACCCAUGUAAAUGGAAGAACCAAUUUGAUAAGAUAAACUCGUCUUAU [JR_STOV1_Sub005] (Eterna round: R97, puzzle: Sensor, turn-off variant 1)	56.9	55.7	
ACAAGCUUGUAAUGAUUUAACAUGAGGAUCACCCAUGUAAAUGGAAGAACCAAUUUGAUAUGAUUUACUCGUCUUAU [JR_STOV1_Sub008] (Eterna round: R97, puzzle: Sensor, turn-off variant 1)	495	589	
ACAAGCUUUUUGCUCGGGUACAUGAGGAUCACCCAUGUUGUGUUUUAUUGUUUUUGAUUGUUCGUGCGCUGCAGGUU [JR_SV3TOV1_Sub074] (puzzle: Sensor v3, turn-off variant 1)			apparent KD of MS2 coat protein [1]: 42.7 nM; apparent KD of MS2 coat protein [2]: 38.5 nM; apparent KD of MS2 coat protein [3]: 58.3 nM
ACACAGCAAGGAUAUACAUGAGGAUCACCCAUGUGGUGGCCGUUACGGUAGGACUAGUGUAGAAGGUGCAUUGG [EX3 #32] (Eterna round: R97, puzzle: Exclusion 3)	637	469	
